B1: I2C-23 IgG1 (antibody, V domains shown)
VH: EVQLVESGGGLVQPGGSLRLSCAASGFTFSSYEIHWVRQAPGKGLEWVASIYPFSGDTYYADSVKGRFTISADTSKNTAYLQMNSLRAEDTAVYYCARPGRAIYYAVMDYWGQGTLVTVSS
VL: DIQMTQSPSSLSASVGDRVTITCRASQSVSSAVAWYQQKPGKAPKLLIYSASSLYSGVPSRFSGSRSGTDFTLTISSLQPEDFATYYCQQAGSHLFTFGQGTKVEIK
notes: human IgG1
B2: I2A-11 IgG1 (antibody, V domains shown)
VH: EVQLVESGGGLVQPGGSLRLSCAASGFTFSSYVIHWVRQAPGKGLEWVAAIYPYTSSTQYADSVKGRFTISADTSKNTAYLQMNSLRAEDTAVYYCARSYGTGGFDYWGQGTLVTVSS
VL: B1 VL with A91W, G92Y, H94Y, L95P, F96L
notes: human IgG1
B3: I2C-6 IgG1 (antibody, V domains shown)
VH: EVQLVESGGGLVQPGGSLRLSCAASGFTFSWYFIHWVRQAPGKGLEWVARIYSTGGYTEYADSVKGRFTISADTSKNTAYLQMNSLRAEDTAVYYCARSAFFGALDYWGQGTLVTVSS
VL: B1 VL with A91Y, G92P, H94G, L95P, F96E
notes: human IgG1
B4: I2A-32 IgG1 (antibody, V domains shown)
VH: EVQLVESGGGLVQPGGSLRLSCAASGFTFQSYVIHWVRQAPGKGLEWVAAIYPYSSSTIYADSVKGRFTISADTSKNTAYLQMNSLRAEDTAVYYCARSWSVYLGMDYWGQGTLVTVSS
VL: B1 VL with A91S, G92Y, S93D, H94S, L95P, F96R
notes: human IgG1
B5: I2A-25 IgG1 (antibody, V domains shown)
VH: EVQLVESGGGLVQPGGSLRLSCAASGFTFYGYTIHWVRQAPGKGLEWVAAIYPYTDSTRYADSVKGRFTISADTSKNTAYLQMNSLRAEDTAVYYCARDYRRALDYWGQGTLVTVSS
VL: B1 VL with A91Y, G92T, S93D, H94F, L95P, F96W
notes: human IgG1
B6: I2A-34 IgG1 (antibody, V domains shown)
VH: EVQLVESGGGLVQPGGSLRLSCAASGFTFSWYVIHWVRQAPGKGLEWVAYIAPYTGSTYYADSVKGRFTISADTSKNTAYLQMNSLRAEDTAVYYCARAFFGIRLGLDYWGQGTLVTVSS
VL: B1 VL with G92I, H94S, L95P, F96Y
notes: human IgG1
B7: I2A-19 IgG1 (antibody, V domains shown)
VH: EVQLVESGGGLVQPGGSLRLSCAASGFTFSSYFIHWVRQAPGKGLEWVAWIYPSGSYTYYADSVKGRFTISADTSKNTAYLQMNSLRAEDTAVYYCAREMDRVGYSGMDYWGQGTLVTVSS
VL: B1 VL with A91Y, G92R, S93T, H94P, F96G
notes: human IgG1
B8: I2C-9 IgG1 (antibody, V domains shown)
VH: EVQLVESGGGLVQPGGSLRLSCAASGFTFTDYDIHWVRQAPGKGLEWVARIWPHGSYTFYADSVKGRFTISADTSKNTAYLQMNSLRAEDTAVYYCARSLTHSYGFDYWGQGTLVTVSS
VL: B1 VL with A91Y, G92Y, S93T, H94W, F96I
notes: human IgG1

Where a chain is given by its changes, count along the chain named. In names and notes the source's numbering stands.

The source of these data is patent US20240392002A1 (EXELIXIS, published 2024).

T4 sequence (Q01974 34-403 limits assumed): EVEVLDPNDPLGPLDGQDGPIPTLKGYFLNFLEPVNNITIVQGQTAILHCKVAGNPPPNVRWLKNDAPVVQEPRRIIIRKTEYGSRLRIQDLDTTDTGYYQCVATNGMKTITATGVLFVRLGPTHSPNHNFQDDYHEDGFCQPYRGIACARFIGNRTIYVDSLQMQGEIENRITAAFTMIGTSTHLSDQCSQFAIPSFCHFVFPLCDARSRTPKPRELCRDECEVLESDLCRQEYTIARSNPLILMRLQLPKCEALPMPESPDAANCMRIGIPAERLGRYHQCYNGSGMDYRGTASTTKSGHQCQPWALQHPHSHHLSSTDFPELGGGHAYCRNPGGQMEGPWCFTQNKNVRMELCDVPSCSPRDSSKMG

In the first experiment the target is T1, ROR1 Frizzled domain (human, UniProt Q01973 165-299).
T1 construct: also called FZ domain; Acro Cat. No. RO1-H5222
T1 sequence (Q01973 165-299): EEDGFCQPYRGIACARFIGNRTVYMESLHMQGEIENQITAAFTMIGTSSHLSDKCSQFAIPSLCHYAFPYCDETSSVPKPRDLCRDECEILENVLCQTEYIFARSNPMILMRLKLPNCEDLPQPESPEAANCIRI
Briefly: BLI, IgG1 on biosensor, soluble ROR1 domain. An excerpt:
(§1) To measure binding affinity in ROR binder discovery campaigns, the VL and VH domains identified in the phage screen described above were formatted into a bivalent monospecific native human full-length IgG1 architecture and immobilized to a biosensor on an Octet (Pall ForteBio) biolayer interferometer. Soluble ROR antigens, including the extracellular domains of ROR1 (Acro Cat. No. RO1-H522γ) and ROR2 (Acro Cat. No. R02-H52E5), as well as the individual ROR1 Frizzled (Acro Cat. No. RO1-H5222), Ig-like (Acro Cat. No. RO1-H5221), and Kringle (Acro Cat. No. RO1-H5223) domains, were then added to the system and binding measured.
(§2) ROR binding candidates, formatted in the bivalent monospecific native human full-length IgG1 architecture, were further characterized for binding to ROR1 and/or ROR2. […] ROR binding candidates were also characterized for their binding to specific ROR1 domains.
As for B1, the binding result is “binds”.
The same measure, in the same setting: under B2 stands “binds”; under B3, “binds”.
Regarding B4, the binding result is reported as “binds”.
Turning to B5, the binding result was “binds”.
In the case of B6, the binding result is listed as “binds”.
Take B7: the binding result was “binds”.

In another experiment the target is T2, ROR1 Ig-like domain (human, UniProt Q01973 42-147).
T2 construct: also called Acro Cat. No. RO1-H5221
T2 sequence (Q01973 42-147): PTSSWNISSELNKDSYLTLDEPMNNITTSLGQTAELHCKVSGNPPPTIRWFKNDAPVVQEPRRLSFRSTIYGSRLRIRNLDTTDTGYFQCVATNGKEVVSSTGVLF
The experiment can be described thus: BLI, IgG1 on biosensor, soluble ROR1 domain.
Text: as §1, §2
Turning to B8, the binding result was “binds”.

The target of a further experiment is T3, extracellular domain of human ROR1 (human, UniProt Q01973 30-406).
T3 construct: bought protein; biotinylated in the bivalent assay format; also called Acro Cat. No. RO1-H522y
T3 sequence (Q01973 30-406 limits assumed): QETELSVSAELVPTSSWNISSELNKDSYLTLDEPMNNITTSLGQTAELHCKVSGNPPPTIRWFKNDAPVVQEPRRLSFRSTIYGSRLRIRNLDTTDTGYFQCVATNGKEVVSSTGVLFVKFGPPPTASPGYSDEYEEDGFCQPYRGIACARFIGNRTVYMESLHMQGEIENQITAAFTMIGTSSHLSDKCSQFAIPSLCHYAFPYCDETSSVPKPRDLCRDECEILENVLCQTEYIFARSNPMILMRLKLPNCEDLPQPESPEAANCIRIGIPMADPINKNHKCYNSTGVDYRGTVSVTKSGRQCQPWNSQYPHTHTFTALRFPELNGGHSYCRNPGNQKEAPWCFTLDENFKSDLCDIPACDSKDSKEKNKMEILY
Briefly: BLI, IgG1 on biosensor, soluble ROR ectodomain.
Text: as §1, §2
As to B1, the binding result is listed as “binds”.
Turning to B2, the binding result is reported as “binds”.
As to B3, the binding result was “binds”.
B4: the binding result is “binds”.
On the same count and under the same terms, to B5 belongs “binds”.
For B6, the binding result is “binds”.
Regarding B8, the binding result is listed as “binds”.
As to B7, the binding result is “binds”.

A further experiment has as its target T4, extracellular domain of human ROR2 (human, UniProt Q01974 34-403).
T4 construct: bought protein; biotinylated in the bivalent assay format; also called Acro Cat. No. RO2-H52E5
The experiment can be described thus: BLI, IgG1 on biosensor, soluble ROR ectodomain.
Text: as §1, §2
Regarding B1, the binding result is recorded as “binds”.
On the same count and under the same terms, to B2 belongs “binds”; to B3, “binds”; to B4, “no binding”.
Take B5: the binding result is on record as “no binding”.
As to B6, the binding result is “binds”.
Take B8: the binding result is on record as “binds”.
As to B7, the binding result is listed as “binds”.
